Source: the DeepSol protein solubility set

Assay: soluble on expression in E. coli; label from the status in PepcDB or PDB records

| Sequence | soluble on expression in E. coli |
| --- | --- |
| MVKQLKFSEDARQAMLRGVDQLANAVKVTIGPKGRNVVLDKEFTAPLITNDGVTIAKEIELEDPYENMGAKLVQEVANKTNEIAGDGTTTATVLAQAMIQEGLKNVTSGANPVGLRQGIDKAVKVAVEALHENSQKVENKNEIAQVGAISAADEEIGRYISEAMEKVGNDGVITIEESNGLNTELEVVEGMQFDRGYQSPYMVTDSDKMVAELERPYILVTDKKISSFQDILPLLEQVVQSNRPILIVADEVEGDALTNIVLNRMRGTFTAVAVKAPGFGDRRKAMLEDLAILTGAQVITDDLGLDLKDASIDMLGTASKVEVTKDNTTVVDGDGDENSIDARVSQLKSQIEETESDFDREKLQERLAKLAGGVAVIKVGAASETELKERKLRIEDALNSTRAAVEEGIVAGGGTALVNVYQKVSEIEAEGDIETGVNIVLKALTAPVRQIAENAGLEGSVIVERLKNAEPGVGFNAATNEWVNMLEEGIVDPTKVTRSALQHAASVAAMFLTTEAVVASIPEKNNDQPNMGGMPGMM | not soluble |
| AHHHHHHGSEIDKGLAKFGDSLINFLYSLALTEFLGKPTGDRVPNASLAIALELTGLSKNLRRVDKHAKGDYAEALIAKAWLMGLISEREAVEIIKKNLYPEVLDFSKKKEAIGRALAPLLVIISERLYSSQV | soluble |
| MQDFKKLPTVLTAEELIDKIFRRAARVEGRNPKEKALNKLATISNVSRDYFGKIIGAHPSYENLPDFYREMVDVVVGIRQLKKSLVALKWADGMIQKVVSRAVREVKGGKNPSAVVKSAYGRVASIIEQIDDELRFLNDAKNRMREIPILQDLPTIVVAGYPNVGKSSLVARISTVKPEVASYPFTTKKINLGFAEFAGKRVQIIDTPGLLDRPLSKRNRIERRAVLALKHLADIILFVIDPTETCGYSLEKQLSLLEEIKGYFAKPTVEVYSKADMHDRRDRQAYSAVTGEGIDELIKEIEKMVKIHSQTSTVIAPSGQTSTQEQHSAAALEHHHHHH | not soluble |
| SEEEHPVSHKKSKKKSKKHKEKDQIKKLDIETMEEKEEDLQREETAKLSNASPNPNEGVKEGCTASMEPSSALELPDYLIKYIAIVSYEQRQNYKDDFNAEYDEYRALHARMETVARRFIKLDAQRKRLSPGSKEYQNVHEEVLQEYQKIKQSSPNYHEEKYRCEYLHNKLAHIKRLIGEFDQQQAESWH | soluble |
| MSLGGTMVFRPVDVPGGAVFADQKITLGGGSPDRAFIENAHPDYLSGSFAEKNAWRYYIAKYELTAAQYAAIAGPCPDASKMDLWLPKVGITPGEATVAAESYSAWLFANARKSLPGDGKAPGFVRLPTEAEWEYAARGGAKVGPSDFDARHPPMDGPESGAIWYDGPESADKELQLVGLLAANPLGLHDMLGNAAELVQDLFRLNRVGRPHGRAGAFVKRGGDYRTPLAEIHSGLRQEFDLFDAKGLRREATTGTRFVLAAAALPSRDRLEALRQGWTALTEQSHSPLAEQQSDPRAELKTLSEFTSQLDFPEKAEVKRRLLNLAGVIDANIASRNEERDRAAREMLRVAVFAAGQLPTALDNAERCGKLMALNAAQYKERCDRVQADSKFDSQYYLDHVTRMLAEFPVPILEGQLGTLGSDLHAQGMLDAEGRVDHVFSDLKTLQAKGATAHKGILGGWKGREGHHHHHH | not soluble |
| MAPENHDGEKHFAEIVKDFGETSMNDNGLDTGEQAKAFAWGKVRDALSQQVNQHVESWLSPWGNASVDVKVDNEGHFTGSRGSWFVPLQDNDRYLTWSQLGLTQQDNGLVSNVGVGQRWARGNWLVGYNTFYDNLQDENLQRAGFGAEAWGEYLRLSANFYQPFAAWHEQTATQEQRMARGYDLTARMRMPFYQHLNTSVSLEQYFGDRVDLFNSGTGYHNPVALSLGLNYTPVPLVTVTAQHKQGESGENQNNLGLNLNYRFGVPLKKQLSAGEVAESQSLRGSRYDNPQRNNLPTLEYRQRKTLTVFLATPPWDLKPGETVPLKLQIRSRYGIRQLIWQGDTQILSLTPGAQANSAEGWTLIMPDWQNGEGASNHWRLSVVVEDNQGQRVSSNEITLTLVEPFDALSNDELRWEP | not soluble |
| MKSLSYKRIYKSQEYLATLGTIEYRSLFGSYSLTVDDTVFAMVSDGELYLRACEQSAQYCVKHPPVWLTYKKCGRSVTLNYYRVDESLWRNQLKLVRLSKYSLDAALKEKSTRNTRERLKDLPNMSFHLEAILGEVGRLAP | not soluble |
| MIVIIDYDTGNTKSISKALDFIGLQNKISSDATEISQADGVILPGVGAYPEAMKELTRRGLNKTLKEIAAGGKPILGVCLGMQLLLESSNEHSFTNGLGLIPGHVEKLPEDPEFAVPHMGWNQLQIKRATPLTKQLDGEYVYYVHSYYANCPEEYIIATSGYSIEVPGMINKGNIYGAQFHPEKSGQIGLEILKGFKEVTYSCKSSQQ | not soluble |
| MKDYIRSVLDVVAESPFVPLETHARKGVLAVEKLSEAMEAYCTGNQALLDERTEEIDVLEHEADKIKQKIRASIPSSVRLPVNKKDLLSFLKQQDSIADFAQASAYWMTLRPCKDLPDEIKEGFLELMATSLKTARMYDRLVGELYKLLATSFSKEEIKETLQLVPEVEKLEHDVDVLETALLKKIFEHESAIGGAGVCHLMGLVERIGGIADKSASAADRLRSMILRRLEHHHHHH | soluble |
| MSLGKLIVPILKSPSHLGHSSSRVNRLYNEDKYSANLLQVKESQIFNFSIFDGHGGDQCSTYLAENLSLALEDLDQLVENDNDRQELFKKYAKNVGGYWKRWYKHRDNTVANWEKERIKLKNFLSDDLATRVPLAFLNADYNFFSKEQKSGSTCTSAMIETIYSKPGTFQPFFENYYFNRHTISKLSIGHLGDTRAIVADKNGLAHTLTTDHHPLNPIEAKRLRKYAANFFMTDSFGEERFVALANTRAFGDVDYKEVGVTAEPDFNQYIIGDLDAIKQFLTPDEIEKYTIGGLGGDESFLILCSDGVTNIMTDQEIADIVLTHVNLKGQTVATPQYCAEQVIKFVEFVGGDDNATCLVIRLNGWGNEGHHHHHH | not soluble |
| MGSDKIHHHHHHMKKLLFIVNVDWFFISHRLPIAIDALKKGYTVTIACHFTSHKQELIDMGFNVLEIPFSRSGAGILSELNTLKCIRKVINDVNPSLIHAVTIKPVLYTGLVLKSINRNIPFVAAISGLGYVFTASTLRAKLTRFIASAFYKVALSQKYKMVIFQNTSDENILTKVAKLESSDKFLIKGSGADLSVYNFSPENLDNRTSIVMACRLLREKGVYVYVDAAKLVKEHFPEAEFLLVGTPDLENPNTVKQVEIDQWVSDGTIKYLGHRNDIPSIFANSNIVCLPSFYGEGVPKVLIEAAACGRAIVTTDNPGCKDAIINEVTGIAVPVRDAQSLALAIIKLLDDPALRISMGKKGRSFAEQEFDVRAVVTKHLDIYNELLQK | not soluble |
| KKHILVYNEEADEALRQIKADRIELHQSFKASFERLNEIQQLAYTNAMTRDAALIQEPDFDPEQLESDYYRNLYRINTRRDNLNTHRALEN | not soluble |
| MGSDKIHHHHHHMTRSVKRVAAIHDLSGFGRASLTAIIPIMSYMGIQVCPMPTAVLSTHTTDFHEYSFVDLTDSMQDFMNHWKKINLEFDAIYTGFLGSPRQVKIISDFVKEFSSDSTLVLIDPVMGDEGELYQTMNSEIVRSMRELIKSADIITPNFTEAAYLLDKDYNLELNEETIKEWILELANMGPDIVIMTSVPENKDKSTISVIAYEKKLNKFWKITSEYIPVSYPGTGDSFASAILGRILKGDNLPQAVGRGMQFITSAIKESYGFDYPTREGILIEKSLEVLNLPFMNGNYKLI | not soluble |
| MDQKSTTCLEALAKLSQQREHQTTPATLCSSEHFFANETIYSDATFLSTTEEAFISSPSSSTQGPKPGLKRVSTGPMTRILEGCQNDKPNSPELERVEEAEDNYSGTSSEEAFSQGIPYPHQVGGHGALSSFERGRVLKPAAKKEIDFYNFIYSDNLPSELEWLRTVTPKYFGQRKTQAKAKRILENQVTPFSQTSSVPVNTVLHIDRKDSERNIWKDQVGELVMDTNPWARACLLKELQKEDEVKSFIILEDLTCHLKKPCVLDCKMGTRHYDDDATEEKKKAHIEKATKTTSSSTGIRFTGMQVYKLPSHTFLFHDKYYGRQLKSHELKNELFEFFHNGVLLRVDIIEQFLSKLQWLYQHLENQHYFNFYSSSLLFVYEGDEMATCPISDVRMIDFAHTQRCVEEQQNDGYLFGLSNLIHLMKSLLEDERNEMR | soluble |
| MKIQFNRFLTRSLLTAALTGAASMAAAATMEVYKSPTCGCCAKWVDHMRDNGFTVNIHDIGNDEARAEAGILPELGSCHTALVNGYAIEGHVPADDIKQLLKERPRAVGLSAPGMPHGSPGMETGRVDSYNVLLIRKPGDKRSATEIYNRYGPGKSGAAEKTSENSTTDSVLRLK | not soluble |
| MSLTQLQITAFGDPSVLRLNPSLDKVPADGEVRVRICFAGVNPIDAKTRAGLGWAAAQNKDKLPWTPGYDVAGVVEKIGPGVTALAEGDRVCGMVGFPLAAGGYGESVVAREEELVRLEDIGLRQGAALPLAGLTAWQGLFEHGALKAGQRVLILAGAGGVGHLAVQFASAYGAEVVATASRDNHSFLHGLGASRMVDYHDADWVAQVGQVELVLDLVGGESGKAALACVKPGGRLVTVPTISAQQIKDAAAGSAIEVLGMLVHPDRQQLSQMLTLLRQGEVQVTVAGEYALAEGALAHQAIEQGHVRGKLLLRMPAAEGHHHHHH | soluble |
| GQLNVEHRQFLSQGLQGQSKGQSSVVVQPELYWDFQSGESSFTFTPFFRVDSLDDERTHCDIREALFLTYWDDYELRVGISKVFWGVTESAHLVDVVNQTDAVEAVDGEDKLGQPMVHFTAIKDWGAFHAMVLPYFRERTFAGQDGRLRTEPVISDNAIYESSREEKHIDVAFRYSKMLGDWDIGLSYLYGTNRDPYFRFEQGELKPYYALMSHFGIDVQGIVGDWLWKLESVYRDSYDHHVGVVTGFE | not soluble |
| AVFRHTLLHFFERLQSNDIYYKFHNILFLKCEHTEQNAAVIAIARKHQAIWREKITAVLTEAVENQDLADDLDKETAVIFIKSTLDGLIWRWFSSCERFDLGKTAPRIIGIMMDNLENHPDLRRK | not soluble |
| MRRVETDSTGQIEVDNDKYWGAQTQRSIEHFSIGSDLMPIEVIKALAIIKKAAAITNHQLGILARTKKEIIIKVADEIIAGELDEHFPLRVLMTGSGTQSNMNVNEVISNRAIELLGGKKGSKNPIHPNDDVNMSQSSNDTFPSAMYIATALEINNRLLPALEYMQQQLADKAKQWDDIVKIGRTHMQDAVPLTLGQEFSGYAALLENNIQRIKDTLKYVYQLALGGTAVGTGLNAPDGFAEITAKYIATITSLAFVSATNKFEVQGSHDALVAVMGQLKTLANSLFKIANDIRLLSCGPRAGFHELLIPENEPGSSIMPGKVNPTQCEAMAMVAAQVIGYDVAVGIGGSAGYLEMNVYKPLIIFNIIQSIKIISDSCVNFTKYLLEGMKPNHDKIEFYLKNSLMLVTALSPVIGYDKAAKLAHYAEQKNISLAEANQELKFLSKEEFDKVVDPYKMTKGGIL | not soluble |
| MGSDKIHHHHHHMKEVKDFYDKWEPEDFPNYIKLLMNFADELIFEEISLLLKKFENKKDFLVLDCGCGFGAFYNLTKDFNTIYLDISLNLLKRFKLKERKICANILHLPFKDNTFDLVLCINVLEHVNYLKALNEIRRILKNKGKLIVVVVNKDSLIKEEIFNDFKIFHKPLSIKDFEIDGFKIVYSNSVYFLPSIFKISPPIILSKIIEYWKPVDKKLSKIFKNKGQFLIIEMVKE | not soluble |
| VEQIMIQGTASDAGKSVIVAGLCRLFKNKGKRVVPFKSQNMSLNSFITATGDEMGRAQVFQAEAAGVFPDVRMNPVLLKPTNDRQSQVIFMGAILDNMDAVSYHDFKQTLIPKIQAVYQSLADENDIIVLEGAGSPAEINLNDRDIVNMGMAKMVDAPVVLVADIDKGGVFASIYGTIMLLKEEERARLKGVIINKFRGDVALLQPGIEMIEELTNVPVIGVIPYANLQL | not soluble |
| MKFKYLSTPLLFSALLFSACSSVNVGANLKSLIKETTDQDLDLSESVSTSEGKKNLISSLKKSYETNPSKTASVLLNAWKQSVENGQIESSETNWTNWKFP | soluble |
